The text below walks through data of paper PMC9834311.

The target in the experiment is E. coli F1Fo ATP synthase subunit b (cysteine-free enzyme) (E. coli) (UniProt P0ABA0). Put plainly: cryo-EM structure; detergent-solubilised (digitonin) cysteine-free E. coli F1Fo ATP synthase (WT at 11 μM, εΔCTH2 mutant at 9 μM) with 10 mM MgATP, pH 8.0, 22 °C, 45 s in all until freezing.

For “E. coli F1Fo ATP synthase subunit b (cysteine-free enzyme) (from UniProt P0ABA0 1-156) (natural protein)”, the stoichiometry N was determined as 2.

As usually defined, the stoichiometry N is the number of molecules, sites or subunits per partner or assembly.
